We go through 94 variants from the supplement of paper PMC10567573.

B1: MYBL2 (parent)
chain: FSPSQFLNFWNKQDTLELESPSLT
B2: KRT34 (parent)
chain: PTVDLNQVLNETRSQYEALVETNR
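Also: lentivirally expressed fusions sorted by FACS into six bins by GFP to DsRed ratio, PSI derived from sequencing read proportions per bin multiplied by bin number.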

In one data set the parent is B1. Description: protein stability index of a GFP-peptide fusion (GPS, HEK-293T) (PSI 1-6); higher = more stable. The conditions noted are these: c terminus: a fixed tail appended.
Regarding ISPSQFLNFWNKQDTLELESPSLT, the protein stability index came out at 3.

For the variant SSPSQFLNFWNKQDTLELESPSLT, the protein stability index was found to be 4.11.

For LSPSQFLNFWNKQDTLELESPSLT, the protein stability index came out at 3.51.

On to CSPSQFLNFWNKQDTLELESPSLT, for which the protein stability index amounted to 2.62.

On to WSPSQFLNFWNKQDTLELESPSLT, for which the protein stability index came to 2.73.

On to TSPSQFLNFWNKQDTLELESPSLT, for which the protein stability index amounted to 3.75.

Consider VSPSQFLNFWNKQDTLELESPSLT, for which the protein stability index stood at 3.72.

Take MSPSQFLNFWNKQDTLELESPSLT: the protein stability index was found to be 3.3.

For the variant ASPSQFLNFWNKQDTLELESPSLT, the protein stability index was 3.77.

Take PSPSQFLNFWNKQDTLELESPSLT: the protein stability index is 4.2.

For the variant QSPSQFLNFWNKQDTLELESPSLT, the protein stability index is 3.74.

Consider GSPSQFLNFWNKQDTLELESPSLT, for which the protein stability index was 2.83.

On to KSPSQFLNFWNKQDTLELESPSLT, for which the protein stability index was found to be 3.75.

As to RSPSQFLNFWNKQDTLELESPSLT, the protein stability index turned out to be 3.06.

As to DSPSQFLNFWNKQDTLELESPSLT, the protein stability index turned out to be 4.27.

With YSPSQFLNFWNKQDTLELESPSLT, the protein stability index came out at 4.39.

For the variant NSPSQFLNFWNKQDTLELESPSLT, the protein stability index came to 3.3.

With ESPSQFLNFWNKQDTLELESPSLT, the protein stability index worked out at 4.58.

As to HSPSQFLNFWNKQDTLELESPSLT, the protein stability index was determined as 2.13.

On to FLPSQFLNFWNKQDTLELESPSLT, for which the protein stability index was 2.79.

For the variant FHPSQFLNFWNKQDTLELESPSLT, the protein stability index turned out to be 3.45.

In the case of FFPSQFLNFWNKQDTLELESPSLT, the protein stability index worked out at 2.14.

For FPPSQFLNFWNKQDTLELESPSLT, the protein stability index stood at 2.13.

For the variant FNPSQFLNFWNKQDTLELESPSLT, the protein stability index amounted to 2.38.

As for FMPSQFLNFWNKQDTLELESPSLT, the protein stability index was 3.62.

On to FCPSQFLNFWNKQDTLELESPSLT, for which the protein stability index was found to be 2.66.

Take FIPSQFLNFWNKQDTLELESPSLT: the protein stability index stood at 3.87.

For FKPSQFLNFWNKQDTLELESPSLT, the protein stability index came to 1.99.

FQPSQFLNFWNKQDTLELESPSLT: the protein stability index was found to be 2.71.

With FAPSQFLNFWNKQDTLELESPSLT, the protein stability index is 2.65.

As to FEPSQFLNFWNKQDTLELESPSLT, the protein stability index stood at 2.08.

FDPSQFLNFWNKQDTLELESPSLT: the protein stability index came out at 1.92.

In the next data set the parent is B2. The description is as above. The settings on record: c terminus: a fixed tail appended.
Turning to PTVDLNQVLNEHRSQYEALVETNR, the protein stability index was 1.75.

Turning to PTVDLNFVLNETRSQYEALVETNR, the protein stability index amounted to 3.61.

For PTVDLNHVLNETRSQYEALVETNR, the protein stability index turned out to be 4.

PTVDLNYVLNETRSQYEALVETNR: the protein stability index was 3.65.

As for PTVDLNSVLNETRSQYEALVETNR, the protein stability index worked out at 3.62.

PTVDLNVVLNETRSQYEALVETNR: the protein stability index stood at 2.37.

Turning to PTVDLNQVLNETRSQYEALVETNH, the protein stability index was found to be 4.08.

As for PTVDLNQVLNETRSQYEALVETNI, the protein stability index worked out at 3.11.

As for PTVDLNQVLNETRSQYEALVETNV, the protein stability index was 2.17.

Regarding PTQDLNQVLNETRSQYEALVETNR, the protein stability index came out at 3.05.

In the case of PTGDLNQVLNETRSQYEALVETNR, the protein stability index amounted to 4.15.

With PFVDLNQVLNETRSQYEALVETNR, the protein stability index turned out to be 1.89.

For the variant PKVDLNQVLNETRSQYEALVETNR, the protein stability index was 3.14.

PGVDLNQVLNETRSQYEALVETNR: the protein stability index stood at 4.14.

Turning to PTVDLNQVLNETRSQYEALVPTNR, the protein stability index came to 4.19.

For the variant PTVDLNQVLNETRSQYEALVYTNR, the protein stability index came out at 3.62.

As for PTVDLNQVLNETRSQYEALVDTNR, the protein stability index was 3.64.

As for PTVDLNQWLNETRSQYEALVETNR, the protein stability index came out at 2.56.

For the variant PTVDLNQSLNETRSQYEALVETNR, the protein stability index was 4.18.

As for PTVDLNQMLNETRSQYEALVETNR, the protein stability index came to 2.88.

In the case of PTVDLNQPLNETRSQYEALVETNR, the protein stability index was found to be 4.2.

In the case of PTVDLNQVLNETRSQYCALVETNR, the protein stability index turned out to be 2.93.

Regarding PTVDLNQVLNETRSQYQALVETNR, the protein stability index came out at 3.88.

For PTVDLNQVLTETRSQYEALVETNR, the protein stability index turned out to be 2.75.

Turning to PTVDLNQVLHETRSQYEALVETNR, the protein stability index was found to be 3.19.

For PTVDLNQVLFETRSQYEALVETNR, the protein stability index was 2.63.

With PTVDLNQVLWETRSQYEALVETNR, the protein stability index came to 3.02.

PTVDLNQVLNETRSVYEALVETNR: the protein stability index worked out at 3.19.

In the case of PTVDLNQVLNETRSWYEALVETNR, the protein stability index was found to be 1.94.

Regarding PTVDLNQVLNETHSQYEALVETNR, the protein stability index is 3.46.

With PTVDLNQVLNETGSQYEALVETNR, the protein stability index worked out at 4.52.

Regarding PTVDLNQVLNETTSQYEALVETNR, the protein stability index was found to be 4.27.

PTVDLNQVDNETRSQYEALVETNR: the protein stability index amounted to 5.55.

On to PTVDLNQVLNETRSQYEAHVETNR, for which the protein stability index turned out to be 4.75.

PTVDLNQVLNETRSQYEAGVETNR: the protein stability index came to 5.03.

As for PTVDLNQVLNETRSQYEAKVETNR, the protein stability index is 5.17.

Turning to PTVDLNQVLNETRSQYEMLVETNR, the protein stability index turned out to be 3.74.

Turning to PTVDLNQVLNETRSQYEALVETDR, the protein stability index was 5.04.

In the case of PTVDLNQVLNETRSQYEALVETRR, the protein stability index is 4.11.

Turning to PTVDLNQVLNETRSQYEALVETIR, the protein stability index is 2.79.

As to PTVDLNQVLNETRSQYEALVETYR, the protein stability index worked out at 3.52.

Consider PTVDLNQVLNETRSQYEALVETFR, for which the protein stability index was 3.71.

Regarding PTVDLNQVLNETREQYEALVETNR, the protein stability index amounted to 2.23.

On to PTVDLNQVLNETRSQHEALVETNR, for which the protein stability index is 5.25.

As for PTVDLNQVLNETRSQDEALVETNR, the protein stability index came out at 5.26.

For the variant PTVDLNQVLNETRSQLEALVETNR, the protein stability index was determined as 4.19.

On to PTVDLNQVLNETRSQYEALVELNR, for which the protein stability index was determined as 2.54.

For PTVDLNQVLNETRSQYEALVEDNR, the protein stability index worked out at 4.58.

Turning to PTVDLNQVLNETRSQYEALVEWNR, the protein stability index amounted to 4.02.

Turning to PTVDLNQVLNCTRSQYEALVETNR, the protein stability index amounted to 3.91.

As for PTVDLNQVLNHTRSQYEALVETNR, the protein stability index amounted to 4.18.

PTVDRNQVLNETRSQYEALVETNR: the protein stability index worked out at 4.53.

Turning to ATVDLNQVLNETRSQYEALVETNR, the protein stability index stood at 3.41.

Take PTVLLNQVLNETRSQYEALVETNR: the protein stability index came to 3.56.

On to PTVCLNQVLNETRSQYEALVETNR, for which the protein stability index amounted to 2.97.

As for PTVMLNQVLNETRSQYEALVETNR, the protein stability index is 3.21.

As for PTVGLNQVLNETRSQYEALVETNR, the protein stability index came to 3.62.

Take PTVTLNQVLNETRSQYEALVETNR: the protein stability index turned out to be 3.5.

PTVVLNQVLNETRSQYEALVETNR: the protein stability index came to 4.02.

PTVILNQVLNETRSQYEALVETNR: the protein stability index amounted to 3.58.

For PTVDLQQVLNETRSQYEALVETNR, the protein stability index was determined as 2.56.

Turning to PTVDLGQVLNETRSQYEALVETNR, the protein stability index was found to be 3.79.
